Data from patent US20240002497A1 (Merck Sharp & Dohme, published 2024).
Where a chain is given by its changes, count along the chain named. In names and notes the source's numbering stands. One block for each binder: values may come before it.

Experiments:
huNav1.7α + β1-β2-β3 [1] = molecular target: T1, huNav1.7α + β1-β2-β3 (human, UniProt Q15858 1-1988; A5A6L6 19-218; O60939 30-215; Q2KI11 23-215); assay: cell-based or functional assay
huNav1.7α [2] = molecular target: T2, huNav1.7α (human, UniProt Q15858 1-1988); assay: cell-based or functional assay
huNav1.7α + β1 = molecular target: T3, huNav1.7α + β1 (human); assay: competition FACS vs EC25 of F103275B05(N93R), HEK
T3 construct: HEK293 cells; also called huNav1.7-beta1; huNav1.7-β1

huNav1.7α [3] = molecular target: T2, huNav1.7α; assay: competition FACS vs EC25 of F103275B05(N93R), HEK
huNav1.7α + β1-β2-β3 [4] = molecular target: T1, huNav1.7α + β1-β2-β3; assay: competition FACS vs EC25 of F103275B05(N93R), CHO FlpIn
huNav1.7α + β1-β2-β3 [5] = molecular target: T1, huNav1.7α + β1-β2-β3; assay: competition FACS vs EC25 of F103275B05(N93R), HEK FlpIn
rhNav1.7α + β1-β2-β3 [6] = molecular target: T4, rhNav1.7α + β1-β2-β3 (rhesus monkey); assay: competition FACS vs EC40 of F103275B05(N93R), CHO FlpIn
T4 construct: also called rhNav1.7-beta1-beta2-beta3; rhNav1.7-β1-β2-β3

[7] = molecular target: T5, huNav1.7α (human Nav1.7 alpha subunit, expressed without β subunits) (human, UniProt Q15858 1-1988); assay: binding FACS, HEKa cells
T5 construct: also called HEK293 human Nav1.7α; HEKa Nav1.7α

[8] = molecular target: T6, huNav1.7α + β1 (human Nav1.7α co-expressed with Navβ1) (human, UniProt Q15858 1-1988; Q07699 19-218); assay: binding FACS, HEKa/β1 cells
T6 construct: also called HEK293 human Nav1.7α + β1; HEKa/β1 Nav1.7α

[9] = molecular target: T7, huNav1.7α + β1-β2-β3 (human Nav1.7α co-expressed with Navβ1, Navβ2 and Navβ3) (human); assay: binding FACS, HEK FlpIn cells
T7 construct: also called huNav1.7-beta1-beta2-beta3

[10] = molecular target: T8, huNav157 chimera 14 + β1-β2-β3 (human); assay: binding FACS, HEK FlpIn cells
T8 construct: Chimera of huNav1.7α (extracellular loops and transmembrane helices) and huNav1.5α (intracellular loops); also called Nav157ch14-β1-β2-β3; huNav157 chimera 14-beta1-beta2-beta3

huNav157 chimera 14 = molecular target: T9, huNav157 chimera 14 (human); assay: binding FACS, HEK FlpIn cells
T9 construct: Chimera without β subunits; also called Nav157ch14

huNav157chim14 = molecular target: T10, huNav157chim14 (human); assay: binding FACS, HEK Flp-In
T10 construct: HEK Flp-In cells; also called huNav157 chimera 14

huNav157chim14-β1-β2-β3 = molecular target: T11, huNav157chim14-β1-β2-β3 (human); assay: binding FACS, HEK Flp-In
T11 construct: Whole entry; HEK Flp-In cells; also called huNav157 chimera 14-beta1-beta2-beta3

huNav1.7α + β1-β2-β3 [11] = molecular target: T1, huNav1.7α + β1-β2-β3; assay: FACS, CHO Flp-In, competitor 1 µM IRR00092
rhNav1.7α + β1-β2-β3 [12] = molecular target: T4, rhNav1.7α + β1-β2-β3; assay: FACS, CHO Flp-In, competitor 1 µM IRR00092
rhNav1.7α + β1-β2-β3 [13] = molecular target: T4, rhNav1.7α + β1-β2-β3; assay: FACS, CHO Flp-In, competitor 1 µM F010300703
huNav1.7α + β1-β2-β3 [14] = molecular target: T1, huNav1.7α + β1-β2-β3; assay: binding FACS, CHO Flp-In, periplasmic extract
[15] = molecular target: T12, muNav1.7α (murine Nav1.7α) (murine, UniProt Q62205 1-1984); assay: binding FACS; minus = lower activity than reference
T12 construct: HEK Jmp-In cells

Qpatch IC50 (huNav1.7α + β1-β2-β3 [1]): 99 nM
Qpatch IC50 (huNav1.7α [2]): 57 nM
IC50 (huNav1.7α + β1): 67 nM
IC50 (huNav1.7α [3]): 49 nM
IC50 (huNav1.7α + β1-β2-β3 [4]): 130 nM
IC50 (huNav1.7α + β1-β2-β3 [5]): 97 nM
IC50 (rhNav1.7α + β1-β2-β3 [6]): 77 nM
B1: F010300468 (VHH)
VHH: EVQLVESGGGLVQPGGSLRLSCAASGSIFNINSMAWYRRAPGKQRELVASSTNGGSTNYADSVKGRFTISRDNAKRVYLQMNSLTPEDTAVYYCRALLQPSIYDISRTYWGQGTLVTVSS
notes: also called F0103275B05(N93R) + FLAG3-HIS6; F103275B05(N93R) + FLAG3-HIS6

Bmax [7]: 100%
EC50 [7]: 2.8 nM
EC50 [8]: 1.8 nM
EC50 [9]: 1.9 nM
EC50 [10]: 3 nM
EC50 (huNav157 chimera 14): 5.4 nM
B2: F010301850 (VHH)
VHH: EVQLVESGGGVVQPGGSLRLSCAASGRILRIGYMRWYRQAPGKQREFVARITDDSATGYADSVKGRFTISRDNAKNTVYLQMNSLRPEDTALYYCEALVTASVRGGSIHSGTYWGQGTLVTVSS
notes: also called F0103387G05(L11V, A14P, D23A, H37Y, G40A, A41P, D58G, N82bS, N83R, V89L, R105Q)

Bmax [7]: 100%
EC50 [7]: 1.8 nM
EC50 [8]: 1.3 nM
EC50 [9]: 2 nM
B3: F010302308 (VHH)
VHH: B2 VHH with N73Y
notes: also called F0103387G05(L11V, A14P, D23A, H37Y, G40A, A41P, D58G, N73Y, N82bS, N83R, V89L, R105Q)

Bmax [7]: 100%
EC50 [7]: 2.8 nM
EC50 [8]: 1.9 nM
EC50 [9]: 2.9 nM
B4: F010302307 (VHH)
VHH: B2 VHH with N73A
notes: also called F0103387G05(L11V, A14P, D23A, H37Y, G40A, A41P, D58G, N73A, N82bS, N83R, V89L, R105Q)

Bmax [7]: 100%
EC50 [7]: 2.2 nM
EC50 [8]: 1.5 nM
EC50 [9]: 2.3 nM
B5: F010302309 (VHH)
VHH: B2 VHH with N73Q
notes: also called F0103387G05(L11V, A14P, D23A, H37Y, G40A, A41P, D58G, N73Q, N82bS, N83R, V89L, R105Q)

MFI (huNav157chim14): 799 MFI
MFI (huNav157chim14-β1-β2-β3): 1230 MFI
MFI (huNav1.7α + β1-β2-β3 [11]): 137000 MFI
MFI (rhNav1.7α + β1-β2-β3 [12]): 139000 MFI
MFI (rhNav1.7α + β1-β2-β3 [13]): 60600 MFI
MFI (huNav1.7α + β1-β2-β3 [14]): 82800 MFI
B6: F0103PMP478E09 (bispecific antibody)
chain: EVQLVESGGGLVQPGGSLRLSCAASGSIFNINSMAWYRRAPGKQRELVASSTNGGSTNYADSVKGRFTISRDNAKRVYLQMNSLTPEDTAVYYCRALLQPSIYDISRTYWGQGTLVTVSSGGGGSGGGGSGGGGSGGGGSGGGGSGGGGSGGGGSGGGGSGGGGSGGGGSEVQLVESGGGLVQAGGSLRLSCAASGRAFSTLAMGWFRQAPGKEREFVAAISRNGNNSATGDSLKGRFTISRDSTKSTVFLQMNTLKPEDTAVYYCAAISTPSASHPYVRKESYRYWGQGTQVTVSSAAADYKDHDGDYKDHDIDYKDDDDKGAAHHHHHHKAAGGGGG
notes: Screened as crude periplasmic extract; also called F103275B05(N93R)-50GS-F0103478E09 bivalent ISVD

EC50 fold change compared to reference [15]: -2 fold
B7: F010301871 (VHH)
VHH: EVQLVESGGGVVQPGGSLRLSCAATSRAFIRDVFTGWYRRVPGKERELVARIYNGGNTNYADFAKGRFTISRDNAKKMVYLQMNSLRPEDTALYYCLFSGTINTGREYRSGDYWGQGTLVTVSS
notes: also called F0103464B09(L11V, T24A, S68T, T79Y, R81Q, S82aN, N82bS, K83R, G88A, V89L); T24A

EC50 fold change compared to reference [15]: -2 fold
B8: F010301872 (VHH)
VHH: B7 VHH with A24T, T25S
notes: also called F0103464B09(L11V, T25S, S68T, T79Y, R81Q, S82aN, N82bS, K83R, G88A, V89L); T25S

EC50 fold change compared to reference [15]: -2 fold
B9: F010301876 (VHH)
VHH: B7 VHH with A24T, A64V
notes: also called F0103464B09(L11V, A63V, S68T, T79Y, R81Q, S82aN, N82bS, K83R, G88A, V89L); A63V
